The results in this text go back to paper PMC4498406.

The target of the assay is [Lys]plasminogen (human). Put plainly: kinetics of conformational plasminogen activation.

The Kd is the concentration at which binding is half-saturated. With “streptokinase ALAB49 SK2b variant with Tyr4 substituted by Pro (natural protein)”, the dissociation constant (Kd) was 600 nM.
